From PMC7526519 (2020)

Columns and labels:
[1] = target: SARS-CoV receptor binding domain (RBD), His-tagged (SARS-CoV, UniProt P59594 306-527); assay: SPR
[2] = target: SARS-CoV-2 receptor binding domain (RBD), His-tagged (SARS-CoV-2, UniProt P0DTC2 319-541); assay: SPR

Binder | Kd [1] | Kd [2]
fulvous fruit bat ACE2 ectodomain fused with mouse Fc (Fc fusion) QSTPEELAKTFLEKFNTEAEDLFYQSSLASWDFNTNIIDENVQKMSKARATWSAFYDEQSKLAKTYQLDEIQDPELKLQLRILQQSGSSTLSADKTKRLNDILNTMSTIYSTGKICQPNNSQECLLLEPGLDDIMENSKDYSQRLWAWESWRSEVGKQLRPYYEEYVVLKNEMARGENYEDYGDYWRGDYETEGINGSAYTRDQLIEDVDRIFTEIKPLYEQLHAYVRTKLMDAYPSHISPTGCLPAHLLGDMWGRFWINLYPLTVPFEQKPNIDVTDEMVNQNWNAKRIFKEAEKFFVSLGLPNMTETFWEKSVLTEPDNDQKVACHPTAWDLGKGDFRIIMCTKVKMEDFLTAHHEMGHIQYYMAYATQPYLLRDGANEGFHEAVGEVISLSVATPNHLKNMGLLPPDFYEDNETEINFLLKQALNVVGTLPFTYMLEKWRWMVFKGEIPKEQWMEKWWEMKRELVGVVEPLPHDETYCDPASLFHVANDYSFIRYYTRTIFEFQFLEALCQIAQHEGPLYKCDIANSTEAGKKLHQMLSLGKSKPWTLALESIAGTKNMDVRPLLNYFEPLFTWLKEKNRNSFVGWSTDWSPYSGQSIKVRISLKAALGEKAYEWNDNEMYLFKSSIAYSLREYFLKVKNLTIPFGEEDVWVSDLKPRISFNFFVTSPQNVSEFIPRTEVEGAIRMSRSRINDAFRLDDDTLEFLGIEPTLGTPYQPPVT | 412 nM | 1130 nM
wild Bactrian camel ACE2 ectodomain fused with mouse Fc (Fc fusion) QSTTEELAKTFLEEFNHEAEDLSYQSSLASWNYNTNITDENVQKMNDARAKWSTFYEEKSKTAKTYPLEEIQNVTLKRQLQALQQSGASALSADKSKRLTTVLSTMSTIYSSGEVCDPNNPQECLVLEPGLDDIMENSKDYNQRLWAWEGWRAEVGKQLRPLYEEYVVLKNEMARANNYEDYGDYWRGDYEVMWAGDYDYSRDQLMGDVEHTFAEIKPLYEHLHAYVRAKLMDVYPSHISPTGCLPAHLLGDMWGRFWTNLYSLTVPFGQKPNIDVTEAMENQSWDAKRIFKEAEKFFVSIGLPNMTQGFWDNSMLTEPGDGRKVVCHPTAWDLGKGDFRIKMCTKVTMDDFLTAHHEMGHIQYDMAYAIQPFLLRNGANEGFHEAVGEIMSLSAATPHYLKALGLLPADFYEDSETEINFLLKQALTIVGTLPFTYMLEKWRWMVFKGEIPKEQWMQKWWEMKREIVGVVEPLPHDETYCDPACLFHVAEDYSFIRYYTRTIYQFQFHEALCQIAKHEGPLYKCDISNSTEAGQKLLQMLSLGKSEPWTLALEGLVGVKTMDVKPLLNYFEPLLTWLKDQNRNSFVGWSTDWTPYTDQSIKVRISLKSALGDKAYEWNDNEMYLFQSSLAYAMRKYFLKVQNQTILFGVEDVWVSDLKPRISFSFFVTSPKNVSDIIPRTEVEEAIRMSRSRINDAFRLDDNSLEFLGIQPTLGPPYEPPVT | 69.1 nM | 272 nM
cat ACE2 ectodomain fused with mouse Fc (Fc fusion) QSTTEELAKTFLEKFNHEAEELSYQSSLASWNYNTNITDENVQKMNEAGAKWSAFYEEQSKLAKTYPLAEIHNTTVKRQLQALQQSGSSVLSADKSQRLNTILNAMSTIYSTGKACNPNNPQECLLLEPGLDDIMENSKDYNERLWAWEGWRAEVGKQLRPLYEEYVALKNEMARANNYEDYGDYWRGDYEEEWTDGYNYSRSQLIKDVEHTFTQIKPLYQHLHAYVRAKLMDTYPSRISPTGCLPAHLLGDMWGRFWTNLYPLTVPFGQKPNIDVTDAMVNQSWDARRIFKEAEKFFVSVGLPNMTQGFWENSMLTEPGDSRKVVCHPTAWDLGKGDFRIKMCTKVTMDDFLTAHHEMGHIQYDMAYAVQPFLLRNGANEGFHEAVGEIMSLSAATPNHLKTIGLLSPGFSEDSETEINFLLKQALTIVGTLPFTYMLEKWRWMVFKGEIPKEQWMQKWWEMKREIVGVVEPVPHDETYCDPASLFHVANDYSFIRYYTRTIYQFQFQEALCRIAKHEGPLHKCDISNSSEAGKKLLQMLTLGKSKPWTLALEHVVGEKKMNVTPLLKYFEPLFTWLKEQNRNSFVGWNTDWRPYADQSIKVRISLKSALGDEAYEWNDNEMYLFRSSVAYAMREYFSKVKNQTIPFVEDNVWVSNLKPRISFNFFVTASKNVSDVIPRSEVEEAIRMSRSRINDAFRLDDNSLEFLGIQPTLSPPYQPPVT | 69.9 nM | 85.7 nM
horse ACE2 ectodomain fused with mouse Fc (Fc fusion) QSTTEDLAKTFLEKFNSEAEELSHQSSLASWSYNTNITDENVQKMNEAGARWSAFYEEQCKLAKTYPLEEIQNLTVKRQLQALQQSGSSVLSADKSKLNEILNTMSTIYSTGKVCNPSNPQECLLLEPGLDAIMENSKDYNQRLWAWEGWRSEVGKQLRPLYEEYVVLKNEMARANNYEDYGDYWRGDYEAEGPSGYDYSRDQLIEDVERTFAEIKPLYEHLHAYVRAKLMDTYPSHINPTGCLPAHLLGDMWGRFWTNLYSLTVPFGQKPNIDVTDAMVDQSWDAKRIFEEAEKFFVSVGLPNMTQGFWENSMLTEPGDGRKVVCHPTAWDLGKGDFRIKMCTKVTMDDFLTAHHEMGHIQYDMAYAVQPYLLRNGANEGFHEAVGEIMSLSAATPNHLKAIGLLPPDFYEDSETEINFLLKQALTIVGTLPFTYMLEKWRWMVFKGEIPKEEWMKKWWEMKREIVGVVEPVPHDETYCDPAALFHVANDYSFIRYYTRTIYQFQFQEALCQTAKHEGPLHKCDISNSTEAGQKLLQMLSLGKSEPWTLALERIVGVKNMDVRPLLNYFEPLFTWLKDQNKNSFVGWSTNWSPYADQSIKVRISLKSALGEKSYEWNDNEMYLFQSSVAYAMRVYFLKAKNQTILFGEEDVWVSDLKPRISFNFFVTSPKNASDIIPRTDVEEAIRMSRSRINDAFRLDDNTLEFLGIQPTLGPPYQPPVT | 141 nM | 133 nM
alpaca ACE2 ectodomain fused with mouse Fc (Fc fusion) QSTTEELAKTFLKEFNHEAEDRSYQSSLASWNYNTNITDENVQKMNDARAKWSTFYEEKSKAAKIYPLEEIENVTLKRQLQALQQSGASALSADKSKRLTTILNTMSSIYSSGEVCDPNNPQECLVLEPGLDDIMENSKDYNQRLWAWEGWRAEVGKQLRPLYEEYVVLKNEMARANNYEDYGDYWRGDYEVMWAGDYDYSRDQLMGDVEHTFAEIKPLYEHLHAYVRAKLMDAYPSRISPTGCLPAHLLGDMWGRFWTNLYSLTVPFGQKPNIDVTEAMENQSWDAKRIFKEAEKFFVSIGLPNMTQGFWDNSMLTEPGDGRKVVCHPTAWDLGKGDFRIKMCTKVTMDDFLTAHHEMGHIQYDMAYAIQPFLLRNGANEGFHEAVGEIMSLSAATPHYLKALGLLPADFYEDSETEINFLLKQALTIVGTLPFTYMLEKWRWMVFKGEIPKEQWMQKWWEMKREIVGVVEPLPHDETYCDPACLFHVAEDYSFIRYYTRTIYQFQFHEALCQIAKHEGPLYKCDISNSTEAGQKLLQMLSLGKSEPWTLALEALVGVKTMDVKPLLNYFEPLLTWLKDQNRNSFVGWSTDWTPYTDQSIKVRISLKSALGDKAYEWNDNEMYLFRSSLAYAMRNYFLTVQKQTILFGVEDVWVSDLKPRISFSFFVTSPKNVSDIIPRTEVEKAIRMSRSRINDAFRLDDNSLEFLGIQPTLGPPYEPP | 54.9 nM | –
dog ACE2 ectodomain fused with mouse Fc (Fc fusion) QSTEDLVKTFLEKFNYEAEELSYQSSLASWNYNINITDENVQKMNNAGAKWSAFYEEQSKLAKTYPLEEIQDSTVKRQLRALQHSGSSVLSADKNQRLNTILNSMSTVYSTGKACNPSNPQECLLLEPGLDDIMENSKDYNERLWAWEGWRSEVGKQLRPLYEEYVALKNEMARANNYEDYGDYWRGDYEEEWENGYNYSRNQLIDDVELTFTQIMPLYQHLHAYVRTKLMDTYPSYISPTGCLPAHLLGDMWGRFWTNLYPLTVPFGQKPNIDVTNAMVNQSWDARKIFKEAEKFFVSVGLPNMTQEFWGNSMLTEPSDSRKVVCHPTAWDLGKGDFRIKMCTKVTMDDFLTAHHEMGHIQYDMAYAAQPFLLRNGANEGFHEAVGEIMSLSAATPNHLKNIGLLPPSFFEDSETEINFLLKQALTIVGTLPFTYMLEKWRWMVFKGEIPKDQWMKTWWEMKRNIVGVVEPVPHDETYCDPASLFHVANDYSFIRYYTRTIYQFQFQEALCQIAKHEGPLHKCDISNSSEAGQKLLEMLKLGKSKPWTYALEIVVGAKNMDVRPLLNYFEPLFTWLKEQNRNSFVGWNTDWSPYADQSIKVRISLKSALGEKAYEWNNNEMYLFRSSIAYAMRQYFSEVKNQTIPFVEDNVWVSDLKPRISFNFSVTSPGNVSDIIPRTEVEEAIRMYRSRINDVFRLDDNSLEFLGIQPTPGPPYEPPVT | 20 nM | 98.9 nM
